Results reported in paper PMC5783997.

How the values were obtained:
[1] = biological target: PucD LH2 α-apoprotein (α-polypeptide encoded by the pucBAd gene pair) (Rhodopseudomonas palustris (endogenous in the ΔpucBAabce mutant; genome sequence of strain CGA009)); experiment: crystal structure; PucD LH2 in 20 mM Tris-Cl pH 8.0, 0.15% DM, 3.0% HPT, PEG 600, 50 mM CaCl2, 16 °C; data to 4.71 Å; molecular replacement with the nonameric Rps. acidophila 10050 LH2, jelly-body refinement
[2] = biological target: PucD LH2 β-apoprotein (β-polypeptide encoded by the pucBAd gene pair) (Rhodopseudomonas palustris (endogenous in the ΔpucBAabce mutant; genome sequence of strain CGA009)); experiment: as above

| Substance | stoichiometry N [1] | stoichiometry N [2] |
| --- | --- | --- |
| PucD LH2 α-apoprotein (α-polypeptide encoded by the pucBAd gene pair) (natural protein) | 9 |  |
| PucD LH2 β-apoprotein (β-polypeptide encoded by the pucBAd gene pair) (natural protein) |  | 9 |
